Laboratory results reported in the nanobody polyreactivity screen of Harvey et al. (2022).

Test: yeast display, Sf9 membrane polyspecificity reagent, FACS + sequencing; frameworks hold sequencing errors
In short: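 Genes from sorted yeast were amplified by colony PCR, read by MiSeq 2 × 250 sequencing and filtered on CDR length. These cells carried a synthetic nanobody library in Saccharomyces cerevisiae BJ5465 and were sorted by FACS into low and high (top ~1%) gates on anti-HA and streptavidin fluorescence. Polyreactivity is labelled according to the gate of origin.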

Row | Sequence | polyreactivity (PSR sort gate)
1 | QVQLVESGGGLVQAGGSLRLSCAASGFIFTVNAMGRYRQAPGKERELVAAITQSGGNRSYADSVKGRFTISSDKAKNTVYLQMNSLKPEDTAVYYCNASSDTSRYGVSTYYYWGQGTQVTVSS | low polyreactivity
2 | QVQLVESGGGLVQAGGSLRLSCAASGFIFVDYDMVWYRQAPGKERELVAAISARGGSTNYADSVKGRFTISRDNAKNTVYLQMNSLKPEDTAVYYCAADTPVWSGYWYDYWGQGTQVTVSS | low polyreactivity
3 | QVQLVESGGGLVQAGGSLRLSCAASGFIFVGNDMGWYRQAPGKERELVAAISSGGTTNYADSVKGRFTISRDNAKNTVYLQMNSLIPEDTAVYYCAADYDYRQGYDSVHLDYWGQGTQVTVSS | low polyreactivity
4 | QVQLVESGGGLVQAGGSLRLSCAASGFIFVGYAMGWYRQAPGKERELVAAISWDGGSTDYADSVKGRFTISRDNAKNTVYLQMNSLKPEDTAVYYCAASYQYWGFWYEYWGQGTQVTVSS | high polyreactivity
5 | QVQLVESGGGLVQAGGSLRLSCAASGFIFVKYDMGWYRQAHGKERELVAAITTSGTGTFYADSVKGRFTISRDNAKNTVDLQMNSLKPEDTAVYYCNSLGHPGDDWGQGTQVTVSS | low polyreactivity
6 | QVQLVESGGGLVQAGGSLRLSCAASGFIFVNYAMGWYRQAPGKERELVAAISRNGGRTYYADSVKGRFTISRDNAKNTVYCQMNSLTPEDTAVYYCTAELSGKRDYWGQGTQVTVSS | high polyreactivity
7 | QVQLVESGGGLVQAGGSLRLSCAASGFIFVNYMGWYRQAPGKERELVAAISRGGSTNYADSVKGRFTISRDNAKNNVFLQMNSLKPEDTAVYYCAAETWYSGYTYDYWGQGTQVTVSS | low polyreactivity
8 | QVQLVESGGGLVQAGGSLRLSCAASGFIFVPNAMGWYRQAPGKERELVAAITWSGSSTYYADSVKGRFTISRDNAKNTVYLQINSLKPEDTAVYYCAADYPVWDEFYDSYEYWGQGTQVTVSS | high polyreactivity
9 | QVQLVESGGGLVQAGGSLRLSCAASGFIFVPYAMGWDRQAPGNERELVAAITWSGAATYYADSVQGRFTISRDNAKNTVYLQLNSLKPEDTAVYYCAAENWLPQTGGYYWYDSWGQGTQVTVSS | high polyreactivity
10 | QVQLVESGGGLVQAGGSLRLSCAASGFIFVPYAMGWYRQAPGKERELVAAITWSGASTYYADSVKGRFTISRDNAKNTVYLQMNRLKPEDTAVYYCAAENWLPQTGGYYWYDYWGQGTQVTVSS | high polyreactivity
11 | QVQLVESGGGLVQAGGSLRLSCAASGFIFVRNTMGWYRQAPGKERELVASISRRGRTTYYADSVKGRFTISRDNAKNTVSLQMNSLKPEDTAVYYCNARYRVPKQGDYWGQGTQVTVSS | high polyreactivity
12 | QVQLVESGGGLVQAGGSLRLSCAASGFIFVRYAMGWSRPAPGKERELVDAISGSGGRTYYADSVKGRFTISRDNAKNTVYLQMNSLIPEDTAVYYCNVKSYTYGYLPYDYWGQGTQVTVSS | high polyreactivity
13 | QVQLVESGGGLVQAGGSLRLSCAASGFIFVRYAMGWYRQAPGKERELVASITRSGGSTYYADSVKGRFTISRDNAKNTVYLQMNSLKPEDTAVYYCAASYYRSRGSTYGYWGQGTQVTVSS | high polyreactivity
14 | QVQLVESGGGLVQAGGSLRLSCAASGFIFVRYTMGWYRQAPGKERELVAAISRSSDSTYYADSVKGRFSISRDNAKNTVYLQMNSLKPEVTAVYYCAAFSGFSPFRFYYWGQGTQVTVSS | high polyreactivity
15 | QVQLVESGGGLVQAGGSLRLSCAASGFIFVSYALGWYRQAPGKETELVAAISSSGGTTNYADSVKGRFTISRDNAKNTVYLQMNSLKPEDTAVYYCAAYVYQTPHSLHIYDYWGQGTQVTVSS | low polyreactivity
16 | QVQLVESGGGLVQAGGSLRLSCAASGFIFVSYAMGWYRQAPGKERELVAAIDRIGGITYYADSVKGRFSISRDNAKNTVYLQMNSLKPEDTAVYYCAAAARYATVRVGREYYWGQGTQVTVSS | low polyreactivity
17 | QVQLVESGGGLVQAGGSLRLSCAASGFIFVTNVMGWYRQAPGKERELVAAISRRGTNTYYADSVKGRFTISRDNAKNTVYLQMNSLKPEDTAVYYCNKLVFHTGGFRYDYWGQGTQVTVSS | high polyreactivity
18 | QVQLVESGGGLVQAGGSLRLSCAASGFIFVTYAMGWYRQAPGKERELVAAITNSGGTTYYADSVKGRFTISRDNAKNTVYLQMNSLKPEDTAVYYCNKPYGAETAHREFDYWGQGTQVTVSS | low polyreactivity
19 | QVQLVESGGGLVQAGGSLRLSCAASGFIFVYGNVMGWYRQAPGKERDLVASITSDGGSTNYADSVKGRFTISRDNAKNTVYLQMNSLKPEDTAVYYCNADVPRGFGGEYDYWGQGTQVTVSS | low polyreactivity
20 | QVQLVESGGGLVQAGGSLRLSCAASGFIFVYNAMGWYRQAPGKEREFVAGISRSGGNTYYADSVKGRFTISRDNAKNTVYLQMNSLKPEDTAVYYCAVVNRRFGFPNVALRSNYGDYWGQGTQVTVSS | low polyreactivity
21 | QVQLVESGGGLVQAGGSLRLSCAASGFIFVYNDMGWYRPAPGKERELVASISNGDNTNYADSVKGRFTISRDNAKNTVYLQMNSLKQEDTAVYYCAARGTIYVLGVPARPVPDGDYWGQGTQVTVSS | low polyreactivity
22 | QVQLVESGGGLVQAGGSLRLSCAASGFIFVYNVMGWYRQAPGKERELVAAITSGGSTNYADSVKGRFTISRDNAKNTVFLKMNSLKPEDTAVYYCNADIYPDWIYLLYGYWGQGTQVTVSS | low polyreactivity

Row | Sequence | polyreactivity (PSR sort gate)
23 | QVQLVESGGGLVQAGGSLRLSCAASGFIFWENGMGWYRQAPGKERELVAAISSGVGRTYYADSVKGRFTISRDNAKNTVYLQMNSLKPEDTAVYYCNRARYYREFDYWGQGTQVTVSS | high polyreactivity
24 | QVQLVESGGGLVQAGGSLRLSCAASGFIFWFNAIGWSRQEPGKEREWVATISWSDTSTYYADSVKGRFTISRDNAKNTVYLQMNSLKPEDTAVYYCATDGRETWLPEYYWGQGTQVTVSS | low polyreactivity
25 | QVQLVESGGGLVQAGGSLRLSCAASGFIFWGNAMGWYRQAPGKERELVAAINYSGGRTYYADSVKGRFTISRDNAKNTVYLQMNSLKAEATAVNYCAAKYRYHVSGYDYWGQATQVTVSS | high polyreactivity
26 | QVQLVESGGGLVQAGGSLRLSCAASGFIFWLYAMGWYRQAPGKERELVAAISSSGGNTYYADSVKGRFTISRDNAKNTVYLQMNSLKPEDTAVYYCAATYSYGRTYSGYYWGQGTQVTVSS | low polyreactivity
27 | QVQLVESGGGLVQAGGSLRLSCAASGFIFWQYTMGWYRPAPGKERELVAAINGGSATYYADSVKGRFTISRDNAKNTVYLQMNSLKPEDTAVYYCAADRYLYHYRYEYYYWGQGTQVTVSS | high polyreactivity
28 | QVQLVESGGGLVQAGGSLRLSCAASGFIFWRYTMGWYRQAPGKERELVAVISWSGDNTYADSVKGRFTISRDNAKNTVYLQMNSLKPEDTAVYYCGVYRYDYWGQGTQVTVSS | low polyreactivity
29 | QVQLVESGGGLVQAGGSLRLSCAASGFIFWSNAMGWYRQAPGKERELVAAISWSGGSTYYADSVKGRFTISRDNAKNTVYLQMNSLKQEDTAVYYCAAEFWGWDWDLEYWGQGTQVTVSS | high polyreactivity
30 | QVQLVESGGGLVQAGGSLRLSCAASGFIFWVNAMGWYRKAPGKERELVAAISSSYGSTYYADYVKGRFSISRDNAKNTVYLQMNRLKPEDTAVCYSAARWLGHFYPFFLQGLSGFDYWGQGTHVTVSS | low polyreactivity
31 | QVQLVESGGGLVQAGGSLRLSCAASGFIFWYYAMGWYRQAPGKERELVATITRGGSTYYADSVKGRFTISRDNAKNTFYLQMNSLKPEDTAVYYCNAVRPKIYDYWGQGTQVTVSS | high polyreactivity
32 | QVQLVESGGGLVQAGGSLRLSCAASGFIFWYYTMGGYRQAPGKERELVAAISRSGASTYYADSVKGRFTISRDNAKNTVYLQMNSLKPEDTAVYYCAKDYQTYSGSSDFDYWGQGTQVTVSS | high polyreactivity
33 | QVQLVESGGGLVQAGGSLRLSCAASGFIFYAYAMGWYRQAPGKERELVAAIDSGGNTYADSVKGRFTISRDNAKNTVYLQMNSLKPEDTAVYYCAVDGGEFSSYGYWGQGTQVTVSS | low polyreactivity
34 | QVQLVESGGGLVQAGGSLRLSCAASGFIFYAYDMGWYRQAPGKERELVAAISRVGSTYYADSVKGRFTISRDNAKNTVYLQMNSLKPEDTAVYYCATKFGTTRGFGYWGQGTQVTVSS | high polyreactivity
35 | QVQLVESGGGLVQAGGSLRLSCAASGFIFYDYAMGWNRQAPGKERELVAAISSGGSTNYADSVKGRFTISRDNAKNTVYLQMNSLKPEDTAVYFCAADDRSYASWKRDYDYWGQGTQVTVSS | low polyreactivity
36 | QVQLVESGGGLVQAGGSLRLSCAASGFIFYDYAMGWYRQAPGKERELVAAISRGGSSTYYADSVKGRFTISRDNAKNTVYLQMNSLKPEDTAVYYCAAYRWYEYDYWGQGTQVTVSS | high polyreactivity
37 | QVQLVESGGGLVQAGGSLRLSCAASGFIFYDYVMGWYRQAPGKERELVAAISASGGSTYYADSVKGRFTISRDNAKNTVYLQMNCLKPEDTAVYYCNARPKYDSGHYYWGQGTQVTVSS | high polyreactivity
38 | QVQLVESGGGLVQAGGSLRLSCAASGFIFYEYDMGWYRQAPGKERELVAAISVSGGSTYYADSVKGRFTISRDNAKNTVYLQRNSLKPEDTAVYYCAVFLPDYGRYDYWGQGTQVTVSS | low polyreactivity
39 | QVQLVESGGGLVQAGGSLRLSCAASGFIFYFNAMGWYRQAPGKERELVAAISASGGRTYFADSVKGRFTISRDNAKNTVYLLMNSLKPEDTAVYYCAARGGSYYFRRYNYWGQGTQVNVSS | high polyreactivity
40 | QVQLVESGGGLVQAGGSLRLSCAASGFIFYGYMGWYRQAPGKERELVAAISYTGGSTYYADSVKGRFTISRDNAKNTVYLQMNSLKPEDTAVYYCARDWRTKWFGYWGQGTQVTVSS | low polyreactivity
41 | QVQLVESGGGLVQAGGSLRLSCAASGFIFYGYVMGWYRQAPGKERELVAAITYNGGRTYYADSVKGRFTISRDNAKNTVYLQMNSLKPEDTAVYYCAALGYDGDYDYWGQGTQVTVSS | low polyreactivity
42 | QVQLVESGGGLVQAGGSLRLSCAASGFIFYIYAMGWYRQAPGKERELVAAISWNGGSTYYADSVKGRFTISRDNAKNTVYLLMNSLKPEDTAVYYCATVARYRYGTGRFDYWGQGTQVTVSS | high polyreactivity
43 | QVQLVESGGGLVQAGGSLRLSCAASGFIFYIYAMGWYRQAPGKEWELVAAISGGGGSTYYAASVKGRFTISRDNAKNTVYLQINSLKPEDTAVSYCAARYDVAWYSKRYSWGQGTQVTVSS | high polyreactivity
